According to the Human Domainome abundance scans (Beltran et al. 2025):
± gives the uncertainty stated by the source.

B1: Serine/threonine-protein kinase LATS1, residues 98 to 141; numbered along this chain, O95835 (parent)
chain: TSEVNPQMLQDLQAAGFDEDMVIQALQKTNNRSIEAAIEFISKM

Variants of: B1
Assay: abundance fitness (aPCA) (normalised: wild type 0, dead -1); higher = more abundant; growth selection in yeast, the domain comes from the species named
Settings: Homo sapiens

Row | Variant | abundance fitness
1 | L9Y | -0.421 ± 0.38
2 | L9R | -0.104 ± 0.062
3 | L9P | -0.53 ± 0.1
4 | L9A | 0.004 ± 0.049
5 | L9T | -0.166 ± 0.15
6 | V4R | -0.515 ± 0.036
7 | V4I | -0.15 ± 0.12
8 | V4Y | -0.272 ± 0.085
9 | V4H | -0.262 ± 0.055
10 | E35C | -0.485 ± 0.066
11 | E35G | -0.173 ± 0.031
12 | E35F | -0.468 ± 0.12
13 | E35T | -0.158 ± 0.053
14 | E35H | -0.151 ± 0.089
15 | E35R | -0.263 ± 0.035
16 | E35S | -0.115 ± 0.042
17 | M21H | -0.294 ± 0.12
18 | M21E | 0.043 ± 0.044
19 | M21K | -0.059 ± 0.062
20 | M21T | 0.088 ± 0.053
21 | M21Y | -0.33 ± 0.072
22 | D20P | -0.166 ± 0.055
23 | D20H | -0.234 ± 0.082
24 | D20C | -0.208 ± 0.041

Row | Variant | abundance fitness
25 | D20R | -0.142 ± 0.036
26 | G16L | -0.898 ± 0.1
27 | G16D | -0.5 ± 0.06
28 | P6M | 0.005 ± 0.039
29 | P6Q | 0.081 ± 0.053
30 | P6C | -0.219 ± 0.098
31 | E39R | -0.224 ± 0.033
32 | E39P | -0.483 ± 0.16
33 | E39T | -0.237 ± 0.047
34 | E39D | -0.113 ± 0.089
35 | E39G | -0.217 ± 0.03
36 | F17I | -0.399 ± 0.086
37 | F17M | -0.336 ± 0.061
38 | F17P | -0.601 ± 0.058
39 | F17K | -0.648 ± 0.11
40 | F17V | -0.501 ± 0.04
41 | A15R | 0.022 ± 0.04
42 | A15Y | -0.181 ± 0.07
43 | A15V | -0.429 ± 0.039
44 | A15F | -0.3 ± 0.087
45 | Q7E | -0.036 ± 0.051
46 | Q7Y | -0.345 ± 0.073
47 | Q7F | -0.549 ± 0.096
48 | Q7D | -0.111 ± 0.071

Row | Variant | abundance fitness
49 | Q7I | -0.223 ± 0.05
50 | Q7R | -0.129 ± 0.031
51 | Q7T | -0.079 ± 0.053
52 | N30E | 0.015 ± 0.04
53 | N30T | -0.533 ± 0.055
54 | S33K | -0.528 ± 0.097
55 | S33V | -1.29 ± 0.13
56 | S33E | -0.665 ± 0.086
57 | S33W | -1.12 ± 0.11
58 | S33N | -0.56 ± 0.3
59 | E19C | -0.218 ± 0.048
60 | A37H | -0.621 ± 0.18
61 | M8W | -0.208 ± 0.056
62 | D18R | -0.22 ± 0.036
63 | D18L | -0.617 ± 0.057
64 | D18C | -0.187 ± 0.23
65 | D18W | -0.853 ± 0.12
66 | D18F | -0.564 ± 0.37
67 | D18A | -0.032 ± 0.036
68 | I34T | 0.046 ± 0.044
69 | I34H | -0.077 ± 0.06
70 | I34D | -0.257 ± 0.071
71 | I34M | 0.04 ± 0.037
72 | I34L | -0.005 ± 0.037

Row | Variant | abundance fitness
73 | N31T | -0.645 ± 0.069
74 | N31G | -0.155 ± 0.03
75 | N31C | -0.139 ± 0.041
76 | N31I | -0.577 ± 0.21
77 | I41D | -0.11 ± 0.045
78 | I41Q | -0.286 ± 0.049
79 | I41H | -0.272 ± 0.07
80 | Q27P | -0.597 ± 0.055
81 | Q27T | -0.007 ± 0.044
82 | Q27W | -0.57 ± 0.042
83 | F40S | -0.131 ± 0.037
84 | F40A | -0.018 ± 0.035
85 | F40R | -0.248 ± 0.033
86 | E3P | -0.079 ± 0.049
87 | E3R | -0.202 ± 0.035
88 | E3C | -0.855 ± 0.073
89 | E3S | -0.332 ± 0.041
90 | E3V | -0.802 ± 0.054
91 | E3W | -0.116 ± 0.05
92 | Q24P | -0.323 ± 0.048
93 | S42E | 0.136 ± 0.038
94 | S42R | 0.048 ± 0.033
95 | R32T | -0.004 ± 0.042
96 | N5E | -0.442 ± 0.055

Row | Variant | abundance fitness
97 | N5Y | -0.964 ± 0.1
98 | L12D | -0.469 ± 0.1
99 | L12G | -0.57 ± 0.038
100 | L12A | -0.607 ± 0.049
101 | L12F | -0.737 ± 0.12
102 | L12H | -0.573 ± 0.12
103 | M44L | -0.11 ± 0.038
104 | M44P | -0.148 ± 0.056
105 | M44E | 0.052 ± 0.056
106 | M44V | 0.011 ± 0.041
107 | M44S | -0.04 ± 0.059
108 | A14V | -0.308 ± 0.036
109 | A14D | 0.04 ± 0.072
110 | A14S | -0.047 ± 0.045
111 | A14K | 0.007 ± 0.059
112 | D11A | -0.017 ± 0.033
113 | D11Q | 0.092 ± 0.04
114 | D11I | -0.083 ± 0.055
115 | D11E | 0.091 ± 0.043
116 | Q10E | -0.077 ± 0.039
117 | Q10G | -0.231 ± 0.033
118 | Q10F | -0.247 ± 0.059
119 | Q10V | -0.253 ± 0.038
120 | T29A | -0.646 ± 0.047

Row | Variant | abundance fitness
121 | T29P | -0.524 ± 0.1
122 | T29L | -0.954 ± 0.071
123 | I23K | 0.041 ± 0.049
124 | I23N | -0.104 ± 0.064
125 | I23H | -0.314 ± 0.064
126 | I23Y | -0.211 ± 0.064
127 | I23A | -0.115 ± 0.043
128 | S2E | -0.014 ± 0.06
129 | S2V | -0.311 ± 0.039
130 | S2K | 0.021 ± 0.059
131 | S2Y | -0.231 ± 0.086
132 | S2N | -0.057 ± 0.052
133 | K28Q | -0.024 ± 0.057
134 | K28V | -0.163 ± 0.036
135 | K28E | 0.034 ± 0.039
136 | K28M | -0.037 ± 0.046
137 | K28Y | -0.027 ± 0.075
138 | K28D | -0.257 ± 0.063
139 | K28P | -0.74 ± 0.072
140 | A25E | -0.668 ± 0.06
141 | A25Q | -0.697 ± 0.088
142 | A25H | -0.937 ± 0.21
143 | A25N | -0.622 ± 0.13
144 | A25D | -0.541 ± 0.088

Row | Variant | abundance fitness
145 | I38A | -0.048 ± 0.037
146 | I38S | -0.113 ± 0.042
147 | I38C | -0.119 ± 0.043
148 | T1D | 0.018 ± 0.087
149 | T1C | -0.098 ± 0.046
150 | T1R | -0.072 ± 0.052
151 | T1S | 0.021 ± 0.04
152 | T1K | -0.012 ± 0.047
153 | A36M | -0.316 ± 0.05
154 | A36H | -0.206 ± 0.056
155 | A36T | -0.258 ± 0.053
156 | A36Y | -0.632 ± 0.092
157 | A36F | -0.77 ± 0.085
158 | A36G | -0.195 ± 0.031
159 | A36W | -0.825 ± 0.06
160 | Q13H | -0.42 ± 0.073
161 | Q13F | -0.536 ± 0.064
162 | Q13K | 0.084 ± 0.052
163 | Q13R | 0.059 ± 0.033
164 | Q13V | 0.067 ± 0.038
165 | K43D | -0.03 ± 0.05
166 | K43Y | -0.194 ± 0.079
167 | K43T | -0.004 ± 0.045
